In PMC2064680 (The Journal of Cell Biology, 2006):
Where “and” joins values, the source holds several entries; their conditions need not be identical. Equal values may be shown once.

T1: ESCRT-I purified from E. coli (Vps23, Vps28, Vps37) (yeast, UniProt P25604 1-385; Q02767 1-242; Q99176 1-213)
T1 sequence (looked up) 1: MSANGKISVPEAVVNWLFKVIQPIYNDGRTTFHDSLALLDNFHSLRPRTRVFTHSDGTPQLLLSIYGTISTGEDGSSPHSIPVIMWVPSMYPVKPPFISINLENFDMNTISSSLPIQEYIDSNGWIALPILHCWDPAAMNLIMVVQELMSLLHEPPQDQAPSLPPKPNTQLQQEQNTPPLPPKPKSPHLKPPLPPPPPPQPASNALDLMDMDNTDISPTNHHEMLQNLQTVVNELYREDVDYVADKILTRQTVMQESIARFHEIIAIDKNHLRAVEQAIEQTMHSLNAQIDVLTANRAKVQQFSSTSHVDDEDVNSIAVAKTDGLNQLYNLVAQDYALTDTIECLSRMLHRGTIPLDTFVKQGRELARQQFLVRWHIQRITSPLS
T1 sequence (looked up) 2: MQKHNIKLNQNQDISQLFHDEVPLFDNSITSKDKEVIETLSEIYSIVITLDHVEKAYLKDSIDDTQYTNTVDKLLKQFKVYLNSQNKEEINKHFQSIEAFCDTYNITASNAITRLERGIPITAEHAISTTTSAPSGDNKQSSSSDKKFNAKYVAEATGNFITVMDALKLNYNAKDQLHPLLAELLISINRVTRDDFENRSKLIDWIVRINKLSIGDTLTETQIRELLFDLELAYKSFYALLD
T1 sequence (looked up) 3: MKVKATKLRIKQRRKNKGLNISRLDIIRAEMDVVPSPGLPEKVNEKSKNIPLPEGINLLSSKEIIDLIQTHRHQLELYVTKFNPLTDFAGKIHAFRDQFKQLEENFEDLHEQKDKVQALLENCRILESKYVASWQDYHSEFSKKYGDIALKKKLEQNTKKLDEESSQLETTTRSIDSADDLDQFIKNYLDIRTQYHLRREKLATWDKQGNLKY


Assays:
[1] = target: ESCRT-I purified from E. coli (Vps23, Vps28, Vps37) (yeast) (UniProt P25604); experiment: cross-linking
[2] = target: T1, ESCRT-I purified from E. coli (Vps23, …)

| stoichiometry N [1] | stoichiometry N [2] | Molecule |
| --- | --- | --- |
| 2 and 3 |  | ESCRT-I purified from E. coli (Vps23, Vps28, Vps37) (from UniProt P25604 1-385; Q02767 1-242; Q99176 1-213) (complex) |
|  | 1 | Mvb12, E. coli-expressed (unpublished in vitro analyses) (natural protein, yeast, UniProt P42939 1-101, looked up) MNNNVEELLRRIPLYNKYGKDFPQETVTRFQMPEFKLPALQPTRDLLCPWYEECDNITKVCQLHDSSNKKFDQWYKEQYLSKKPPGIVGNTLLSPSRKDNS |
